In patent US20260263614A1, “ANTIBODY DRUG CONJUGATES THAT BIND CDCP1 AND USES THEREOF” (Pheon Therapeutics Ltd, priority 2022, published 2026):
Where two headings read alike, the source gives them in different places.

What was measured:
[1] = tested on: linear double-stranded TyrT fragment; assay: DNA cross-linking assay; format: biochemical
Procedure: The preparation of the TyrT DNA fragment has been previously described. Briefly, the sequence which had been cloned into the BamHI site of pUC18 was obtained by cutting with HindIII and EcoRI. Radiolabelled DNA fragments were prepared by filling in the 3′-end of the HindIII site with [α-^32P]dATP using Klenow DNA polymerase (exo-).
The radiolabelled DNA fragment was separated from the remainder of the plasmid DNA on a 6% non-denaturing polyacrylamide gel. The gel (20 cm long, 0.3 mm thick) was run at 400 V in 1×TBE running buffer for about 1-2 h, until the bromophenol blue had run most of the way down the gel. The glass plates were separated and the position of the labelled DNA fragment was established by short (1 min) exposure to an X-ray film. The relevant band was then cut from the gel and the radiolabelled DNA eluted by adding 300 μL 10 mM Tris-HCl, pH 7.5 containing 0.1 mM EDTA and gently agitating overnight at room temperature. The eluted DNA was finally precipitated with ethanol and re-suspended in a suitable volume of 10 mM Tris-HCl, pH 7.5 containing 0.1 mM EDTA buffer so as to give at least 10 counts per second/μL on a hand-held Geiger counter. With fresh plasmid and α-^32P-dATP this process typically generated about 150 μL of radiolabelled fragment DNA. The absolute concentration of the DNA is not important, and it is typically lower than 10 nM.
Radiolabelled DNA ([…]) was mixed with 1.5 μL ligand solution of various concentrations (10 μM-10 nM) and incubated overnight at 37° C.
After overnight incubation, the samples were mixed with 7 μL loading solution (80% formamide containing 10 mM EDTA, 10 mM NaOH, 0.1% bromophenol blue) and incubated at 65° C. for 5 min. Control 1 (C1) for native double-stranded DNA consisted of 1.5 μL labelled DNA, 1.5 μL 10 mM Tris-HCl, pH 7.5 containing 0.1 mM EDTA and 7 μL 1× loading dye. […]
The ability of 26 to cross-link DNA was evaluated using an assay involving a linear double-stranded TyrT fragment (FIG. 17). […]

[2] = tested on: HexA and MS1 DNA fragments; assay: DNA footprinting; format: binding
Procedure: Footprinting reactions were performed as using previously described methods using the DNA fragments HexA and HexB, which together contain all 64 symmetrical hexanucleotide sequences, and MS1 that contains all possible […] tetranucleotide sequences. The DNA fragments were obtained by cutting the parent plasmids with HindIII and SacI (for HexA and MS1) or EcoRI and PstI (for HexB), and were labelled at the 3′-end of the HindIII or EcoRI sites with [α-^32P]dATP using reverse transcriptase or exo-Klenow fragment. After gel purification, the radiolabelled DNA was dissolved in 10 mM Tris-HCl pH 7.5 containing 0.1 mM EDTA, at a concentration of about 10 c.p.s per μL as determined on a hand held Geiger counter. 1.5 μL of radiolabelled DNA was mixed with 1.5 μL ligand that had been freshly diluted in 10 mM Tris-HCl pH 7.5, containing 10 mM NaCl. The complexes were left to equilibrate for at least 12 hours before digesting with 2 μL DNase I (final concentration about 0.01 units/mL). The reactions were stopped after 1 minute by adding 4 μL of formamide containing 10 mM EDTA and bromophenol blue (0.1% w/v). The samples were then heated at 100° C. for 3 minutes before loading onto 8% denaturing polyacrylamide gels containing 8 M urea. Gels were fixed in 10% acetic acid, transferred to 3 MM paper, dried and exposed to a phosphor screen overnight, before analysing with a Typhoon phosphorimager
The DNA sequence selectivity profile of the molecules was investigated using a modification of a previously established DNA footprinting assay. Following an overnight incubation of the ligand-DNA complexes, the mixture was mixed with strand separation buffer containing 10 mM EDTA, 10 mM NaOH, 0.1% bromophenol blue, 80% formamide and incubated at 100° C. for 3 min. The mixture was then immediately cooled on ice and run on an 8% denaturing gel. […] The possible adducts formed within the HexA sequences are shown in FIGS. 20 and 21, respectively.

[3] = Comparative repeat-dose rat toxicity study; format: in vivo; settings: DAR 8 on a Trastuzumab backbone; IV once every 3 weeks, two doses, 20 or 60 mg/kg
[4] = comparison value of another MMAE ADC; cited from earlier work
[5] = target: T1, huCDCP1(F30-T667 Q525)-8×His_T3 (human, UniProt Q9H5V8 30-667); assay: SPR, recombinant CDCP1 ECD
T1 construct: The construct name gives the limits F30-T667 and Q525; also called recombinant CDCP1 ECD; CDCP1 ECD

[6] = target: T1, huCDCP1(F30-T667 Q525)-8×His_T3; assay: SPR, huCDCP1(F30-T667 Q525)-8×His_T3 as analyte; mAb lot T12
[7] = target: T2, CDCP1 on antigen-positive cells (A427; CDCP1+ cells MDA-MB-468, PC3, DU145) (Homo sapiens (Human), UniProt Q9H5V8 30-836, On the FIG. 45 cell lines, part of the CDCP1 is proteolytically cleaved in the extracellular domain; the cleavage site is not stated. The uncleaved mature protein is given.); assay: binding to CDCP1+ cells (cell line not given), % Maximum against log concentration, fitted curve
T2 construct: also called the antigen; antigen positive cell-line (A427)

[8] = target: T1, huCDCP1(F30-T667 Q525)-8×His_T3; assay: SPR, huCDCP1(F30-T667 Q525)-8×His_T3 as analyte; mAb lot T14
[9] = target: T2, CDCP1 on antigen-positive cells (A427; …); assay: binding to CDCP1+ cells (cell line not given), % Maximum against log concentration, fitted curve; remark: listed apart in the source
[10] = tested on: MDA-MB-468, PC3, DU145 and OVMZ-6 cells; assay: Binding to cells after CDCP1 cleavage; settings: mAbs binding membrane proximal or distal regions of CDCP1
Text: FIG. 45E is an image of polyacrylamide gel binding assay. […] The sequences of the light chain variable region, heavy chain variable region, and CDRs (SEQ ID NOs: 15-22) of “Sequence 2” can be found in Table 2B.

[11] = target: T2, CDCP1 on antigen-positive cells (A427; …); assay: binding to CDCP1+ cells (cell line not given), % Maximum against log concentration, fitted curve; remark: listed apart in the source
[12] = target: T2, CDCP1 on antigen-positive cells (A427; …); assay: flow cytometry on MDA-MB-468 cells (CDCP1+ cleavage), channel R712-A

## COc1cc2c(cc1OCCCC(=O)Nc1cc(C(=O)Nc3ccc(N)cc3)n(C)c1)N=C[C@@H]1CCCCN1C2=O [Compound 19, (S)—N-(4-Aminophenyl)-4-(4-((2-methoxy-12-oxo-6a,7,8,9,10,12-hexahydrobenzo[e]pyrido[1,2-a][1,4]diazepin-3-yl)oxy)butanamido)-1-methyl-1H-pyrrol-2-carboxamide]
[1]
  ability to cross-link DNA (conclusion): incapable of cross-linking DNA

## COc1cc2c(cc1OCCCC(=O)Nc1cc(C(=O)Nc3ccc(-c4cc(C(=O)Nc5ccc(N)cc5)n(C)c4)cc3)n(C)c1)N=C[C@@H]1CCCCN1C2=O [Compound 26, (S)—N-(4-aminophenyl)-4-(4-(4-(4-((2-methoxy-12-oxo-6a,7,8,9,10,12-hexahydrobenzo[e]pyrido[1,2-a][1,4]diazepin-3-yl)oxy)butanamido)-1-methyl-1H-pyrrol-2-carboxamido)phenyl)-1-methyl-1H-pyrrol-2-carboxamide]
[1]
  ability to cross-link DNA (conclusion): incapable of cross-linking DNA
[1]; six concentrations, overnight incubation at 37° C., denaturing gel
  DNA interstrand cross-links: not detectable at any concentration
[2]
  DNA stabilisation and sequence selectivity (biophysical summary): effectively stabilises DNA with a high degree of sequence-specificity
  DNA-binding site (X any base, W adenine or thymine): XGXWWWW
[2]; overnight incubation of ligand-DNA complexes
  footprints (preferred sites) on HexA: only five preferred sites

## CC[C@@]1(O)C(=O)OCc2c1cc1n(c2=O)Cc2c-1nc1cc(F)c(C)c3c1c2[C@@H](NC(=O)CO)CC3 [Dxd, reference compound]
[3]
  tolerability: well tolerated

## Adcetris
[4]
  ADC cyno t1/2: 45 to 72 h

B1: CDCP1 mAb (unconjugated IgG1 antibody targeted to CDCP1, Sequence 1) (antibody, V domains shown)
VH: EVQLLESGGGLVQPGGSLRLSCAASGFTFSNYAMNWVRQAPGKGLEWVSAISGGGGSTYYADSVKGRFTISRDNSKNTLYLQMNSLRAEDTAVYYCAKESITMVRGVMDYYGMDVWGQGTTVTVSS
VL: DIQLTQSPSFLSASVGDRVTITCRASQGISSYLAWYQQKPGKAPKLLIYAASTLQGGVPSRFSGSGSGTEFTLTISSLQPEDFATYYCQHLNRFPRTFGQGTKVEIK
notes: IgG1; also called unconjugated CDCP1-mAb; unconjugated CDCP1 mAb
[5]
  Kd: ~1000 pM
[6]
  Kd: 800 pM
  koff: 0.000468 s⁻¹
  kon: 584000 M⁻¹ s⁻¹
[7]
  EC50: 0.207 µg/mL

B2: CDCP1-vcMMAE (DAR of 4) (antibody, V domains shown)
VH: B1 VH
VL: B1 VL
modifications: vc-MMAE (Val-Cit linker, monomethyl auristatin E) conjugated to the antibody, DAR of 4; sites not stated
notes: also called CDCP1-MMAE
[8]
  Kd: 604 pM
  koff: 0.00038 s⁻¹
  kon: 629000 M⁻¹ s⁻¹
[9]
  EC50: 0.384 µg/mL

B3: mAbs-CDCPA1 Sequence 1: "mAbs-CDCPA1 Sequence 1 (proximal region)" antibody binding the membrane proximal region of CDCP1 (antibody, V domains shown)
VH: B1 VH
VL: B1 VL
[10]
  binding to cells with cleaved CDCP1: did not show significant difference in binding to CDCP1+ cells

B4: ADC3 (CDCP1 mAb conjugated to compound 30, DAR of 8) (antibody, IgG1, V domains shown)
VH: B1 VH
VL: B1 VL
modifications: compound 30 (Mal-amido-PEG8-Val-Ala-exatecan) conjugated stochastically to reduced cysteines of the IgG1, average DAR 7.3 (called DAR of 8); sites not stated
notes: also called CDCP1-targeted exatecan conjugate
[8]
  Kd: 570 pM
  koff: 0.000422 s⁻¹
  kon: 740000 M⁻¹ s⁻¹
[11]
  EC50: 0.16 µg/mL

B5: mAbs-CDCPA1 Sequence 2 (anti-CDCP1 antibody, Sequence 2) (antibody, V domains shown)
VH: QVQLVQSGAEVKKPGSSVKVSCKASGGTFSSYAMSWVRQAPGQGLEWMGGIIPILGTTNYAQKFQGRVTITADKSTSTAYMELSSLRSEDTAVYYCAREGLYAFDIWGQGTMVTVSS
VL: DIQMTQSPSSLSASVGDRVTITCRASQSISSYLNWYQQKPGKAPKFLIYVASSLQSGVPSRFSGRGSGTDFTLTISSLQPEDFATYYCQQSYSTPWTFGQGTKVEIK
[12]
  binding result: binds
